According to publication PMC7616460, “Skraban-Deardorff intellectual disability syndrome-associated mutations in WDR26 impair CTLH E3 complex assembly” (FEBS letters, 2024):

Target: the molecule itself
Assay: cryo-EM structure; focused refinement (Relion v4.0) of the prior map EMD-12545 over the WDR26-YPEL5 region, 6.7 Å; fitted with AlphaFold2 models

B1: WDR26 in the CTLH subcomplex of the cryo-EM map EMD-12545 / EMD-19039 (natural protein, human, UniProt Q9H7D7 1-661, looked up)
chain: MQANGAGGGGGGGGGGGGGGGGGGGQGQTPELACLSAQNGESSPSSSSSAGDLAHANGLLPSAPSAASNNSNSLNVNNGVPGGAAAASSATVAAASATTAASSSLATPELGSSLKKKKRLSQSDEDVIRLIGQHLNGLGLNQTVDLLMQESGCRLEHPSATKFRNHVMEGDWDKAENDLNELKPLVHSPHAIVVRGALEISQTLLGIIVRMKFLLLQQKYLEYLEDGKVLEALQVLRCELTPLKYNTERIHVLSGYLMCSHAEDLRAKAEWEGKGTASRSKLLDKLQTYLPPSVMLPPRRLQTLLRQAVELQRDRCLYHNTKLDNNLDSVSLLIDHVCSRRQFPCYTQQILTEHCNEVWFCKFSNDGTKLATGSKDTTVIIWQVDPDTHLLKLLKTLEGHAYGVSYIAWSPDDNYLVACGPDDCSELWLWNVQTGELRTKMSQSHEDSLTSVAWNPDGKRFVTGGQRGQFYQCDLDGNLLDSWEGVRVQCLWCLSDGKTVLASDTHQRIRGYNFEDLTDRNIVQEDHPIMSFTISKNGRLALLNVATQGVHLWDLQDRVLVRKYQGVTQGFYTIHSCFGGHNEDFIASGSEDHKVYIWHKRSELPIAELTGHTRTVNCVSWNPQIPSMMASASDDGTVRIWGPAPFIDHQNIEEECSSMDS
notes: WDR26, human; the fitted AlphaFold2 model is of isoform 1 (Q9H7D7-1); subcomplex held WDR26, RANBP9, TWA1, ARMC8, GID4 and YPEL5; also called WDR26 dimer
  stoichiometry N: 2
